Data as given in the DeepSol protein solubility set.

Experiment: soluble on expression in E. coli; label from the status in PepcDB or PDB records

Row | Sequence | soluble on expression in E. coli
1 | GAMGSGIPMEACPHIRYAFQNDKLLLQQASVGRLTLVNKTTILLRPMKTTTVDLGLYARPPEGHGLMLWGSTSRPVTSHVGIIDPGYTGELRLILQNQRRYNSTLRPSELKIHLAAFRYATPQMEEDKGPINHPQYPGNVGLDVSLPKDLALFPHQTVSVTLTVPPPSIPHHRPTIFGRSGLAMQGILVKPCRWRRGGVDVSLTNFSDQTVFLNKYRRFCQLVYLHKHHLTSFYSPHSDAGVLGPRSLFRWASCTFEEVPSLAMGDSGLSEALEGRQGRGFGSSGQ | soluble
2 | GAVDLNDDVLDMGTGLRMQLYQCGDPRGRPVLYLHGMLDGMAPLEYLKHDFARRGLRVLAPVRPGYGLSEPVAGVEPGLRAMASHAVELIDRFALDRVAILGHMAGAVTGYVLRAGGDPRLAGMVAVAASGPLLRRAQLSGMARRQRMMAMTARWTPALLPFFVRAGIALIDSEEVGRFMDALYPPGSHERQVVDRLELAALMHAGYRFAAQSGTAGFEADALTMVSPWQRLSDGGTCPVVHLHGALDPVVPAAETARFAASISGASFRRFEDVGQFLIYERPDAVLDAIEAMLPPR | not soluble
3 | GEIEFIESSKDAGFPVINTPSKTKLEPSVFHQVFEGNKEPAVLRSGDPRLKANFEEAIFSKYIGNVNTHVDEYMLEAVDHYAGQLATLDISTEPMKLEDAVYGTEGLEALDLTTSAGYPYVALGIKKRDILSKKTKDLTKLKECMDKYGLNLPMVTYVKDELRSIEKVAKGKSRLIEASSLNDSVAMRQTFGNLYKTFHLNPGVVTGSAVGCDPDLFWSKIPVMLDGHLIAFDYSGYDASLSPVWFACLKMLLEKLGYTHKETNYIDYLCNSHHLYRDKHYFVRGGMPSGCSGTSIFNSMINNIIIRTLMLKVYKGIDLDQFRMIAYGDDVIASYPWPIDASLLAEAGKGYGLIMTPADKGECFNEVTWTNATFLKRYFRADEQYPFLVHPVMPMKDIHESIRWTKDPKNTQDHVRSLCLLAWHNGEHEYEEFIRKIRSVPVGRCLTLPAFSTLRRKWLDSFHHHHHH | soluble
4 | GEPVEFQPKYRDLMLVVDLSGSMQKEDMNLDGEYIDRLSAVKKVLSDFVAKRKGDRLGVVLFGDHAYLQTPLTADRQTVIQQIKQTVIGLVGQRTAIGDGIGLGTKTFVDSDAPQRVMILLSDGSNTAGVLDPIEAAEIAKK | not soluble
5 | GEVRNIVDKTASFVARNGPEFEARIRQNEINNPKFNFLNPNDPYHAYYRHKVSEFKEGKAQEPS | soluble
6 | GFVKEPFFTRLIDLESPFEEEFDKNVRYEIKRAQKESLLFSWGEGVPRFVKFFNAFAQSKGLSLLNEAELSYMGEHLRLTEIRANGEPLVMHSYLLDHSIKRVRLLHSASLFRLSQEKDFRALVGRANRLLHFLDMERFKEEGFKIYDFGGVSHSQDPALLGINRFKEGFGGRE | not soluble
7 | GGDFREYRDLMDTQVVLGFEGRPYHARDFYAAQILSIILGGGMSSRLFQEVREKRGLCYSIYAFHWGFSDIGLFGLHAATGQEKLKELLPVILDELSKVSKNIHTNELQRARAQYRATLTMAQENPSSQANFIARQILLYGREIPLSETIERLELITPARLTDLAGRLFINATPTLAAVGPVGSLMNFDNLTSTL | not soluble
8 | GGGGGGMGSPYEYQPEVKWYHVLWDMRNKQFRQWYLKKKYRDMRIAYKYESHILYQKAGMGFLMAAVFMSIFSSDLAVAVFRWPTEDPNELLKSQVWQKYHNQLNERKEYADKLLQDSNYIHRKNNPGE | soluble
9 | GGSGRPEIWIAQELRRIGDEFNAYYARRV | soluble
10 | GHMAESQALSDDIGFLLSRVGGMVLGAVNKALVPTGLRVRSYSVLVLACEQAEGVNQRGVAATMGLDPSQIVGLVDELEERGLVVRTLDPSDRRNKLIAATEEGRRLRDDAKARVDAAHGRYFEGIPDTVVNQMRDTLQSIAFPTFVEGS | soluble
11 | GHMDQSDFSPYIEIDLPSESRIQSLHKSGLAAQEWVACEKVHGTNFGIYLINQGDHEVVRFAKRSGIMDPNENFFGYHILIDEFTAQIRILNDLLKQKYGLSRVGRLVLNGELFGAKYKHPLVPKSEKWCTLPNGKKFPIAGVQIQREPFPQYSPELHFFAFDIKYSVSGAEEDFVLLGYDEFVEFSSKVPNLLYARALVRGTLDECLAFDVENFMTPLPALLGLGNYPLEGNLAEGVVIRHVRRGDPAVEKHNVSTIIKLRCSSFMELKHPGKQKE | soluble
12 | GHMHTPFIVALDFPSKQEVERFLRPFAGTPLFVKVGMELYYQEGPAIVAFLKEQGHAVFLDLKLHDIPNTVKQAMKGLARVGADLVNVHAAGGRRMMEAAIEGLDAGTPSGRMRPRCIAVTQLTSTDERMLHEELWISRPLVETVAHYAALAKESGLDGVVCSANEAAFIKERCGASFLAVTPGIRFADDAAHDQVRVVTPRKARALGSDYIVIGRSLTRAADPLRTYARLQHEWNGGERESTTPT | soluble
13 | GHMIKGEQKRYSEMTKEELQQEIAMLTEKARKAEQMGMVNEYAVYERKIAMAKAYMLNPADFHPGEIYEIEGAPGEYFKVRYLKGVFAWGWRLKGNGEEEALPISLLRKPNLPQS | soluble
14 | GIDPFTAPGQLECETAIAALNSCLRDLDQASLAAVSQQLAPREGISQEALHTQMLTAVQEISHLIEPLASAARAEASQLGHKVSQMAQYFEPLTLAAVGAASKTLSHPQQMALLDQTKTLAESALQLLYTAKEAGGNPKQAAHTQEALEEAVQMMTEAVEDLTTTLNEAASAAG | soluble
15 | GKDDDNVETGAFDPSKPVAISDFTPKEGGAYQKLLIYGENFGTDVSKVKVKIGGKDAIVINVKSTYVYCFVPSGAFSGEIEITVGEGENAVTTTASTTFSYEKKMVVGTLCGYRNNRDDQGWRDGPFDGPEGVKCCGFSDNGRLAFDPLNKDHLYICYDGHKAIQLIDLKNRMLSSPLNINTIPTNRIRSIAFNKKIEGYADEAEYMIVAIDYDGKGDESPSVYIIKRNADGTFDDRSDIQLIAAYKQCNGATIHPINGELYFNSYEKGQVFRLDLVDYFKTIKNGGSWDPIVKNNPNTFKQLFTIADPSWEFQIFIHPTGKYAYFGVINNHYFMRSDYDEIKKEFITPYNFVGGYKQSGYRDDVGTEARMNNPCQGVFVKNPDYTGEEEYDFYFVDRLNFCVRKVTPEGIVSTYAGRGASTSLADGNQWGTDDGDLREVARFRDVSGLVYDDVKEMFYVHDQVGHTIRTISMEQEENVAGDENIPEDESTVESNE | soluble
16 | GKPKTDTDFQTYNGDGFKLQIPSKWNPNKEVEYPGQVLRFEDNFDATSNVIVAITPTDKKSITDFGSPEQFLSQVDYLLGRQAYSGKTDSEGGFESDAVAIANVLETSTAEVGGKQYYYLSILTRTADGNEGGKHQLVTATVNDGKLYICKAQAGDKRWFKGAKKFVENTATSFSLA | soluble
17 | GKSASGEKEGNENAEEEAAAIEEARREAEERRKEKHRKMEEEREEMRQTIRDKYGLKKKVKEEPEAEADLDEGRVGRKK | soluble
18 | GLEVTVWNRSAAACEPLVALGAARAEEVGELFGLDVVISMLADDQAIRGVLLDSGALERARPGLIHLSMSTLSLDCVEALDQAHQRQGLAFVAAPVFGRTDVAEAGKLNIVVGGPEEAIEQVKALLEIMGQKTWFFGKDPRGAMAVKISGNFMIASAIESMGESVALVKRLGVEPGRFMELMSSTLFDAPVYRNYGPQIVEQRFTPARFRLVLGLKDVDLALSAGKRHNVPLPLASLLHDVLLEAIAHGDGESDWTALAKVALSRSGQI | not soluble
19 | GLFDKLKSLVSDDKKDTGTIEIIAPLSGEIVNIEDVPDVVFAEKIVGDGIAIKPTGNKMVAPVDGTIGKIFETNHAFSIESDSGVELFVHFGIDTVELKGEGFKRIAEEGQRVKVGDTVIEFDLPLLEEKAKSTLTPVVISNMDEIKELIKLSGSVTVGETPVIRIKK | soluble
20 | GLVNAHTHLEMTPLIGAFSELELTEMLGSGTALFNRLGNGEFEYLVEAGVELAALNFLLGGVTTVNSMDARPAAGAEAFGEAGLRGFFGPAISDLFWDQPVDQQFSRAREFVETYHDTYDGRIRATICPHDDWSCTRQLWERTASLAAEYPDLLVHTHLLELEESNTMARANGGEDSVGLLDDVGLLDDRLVAAHFRLGDEEDIQRTAEADAAVAHCPSVFCYWNPDGETQWTPVPELRAAGVDVGVGIDDHYWHDSYSMFGEARQARLAANLKRSAGQFDSMELIRMLTIEGARALGMGDE | not soluble
21 | GMAEYEDRYWTSSDGLRLHFRAYEGDISRPPVLCLPGLTRNARDFEDLATRLAGDWRVLCPEMRGRGDSDYAKDPMTYQPMQYLQDLEALLAQEGIERFVAIGTSLGGLLTMLLAAANPARIAAAVLNDVGPEVSPEGLERIRGYVGQGRNFETWMHAARALQESSGDVYPDWDITQWLRYAKRIMVLGSSGRIAFDYDMKIAEPFEAPVGATPQVDMWPLFDALATRPLLVLRGETSDILSAQTAAKMASRPGVELVTLPRIGHAPTLDEPESIAAIGRLLERV | soluble
22 | GMALQEEFIDVNGTRVFQRKMVTDSNRRSIALFHGYSFTSMDWDKADLFNNYSKIGYNVYAPDYPGFGRSASSEKYGIDRGDLKHAAEFIRDYLKANGVARSVIMGASMGGGMVIMTTLQYPDIVDGIIAVAPAWVESLKGDMKKIRQKTLLVWGSKDHVVPIALSKEYASIISGSRLEIVEGSGHPVYIEKPEEFVRITVDFLRNL | soluble
23 | GMANKVEHRLSEQQMKALTDLPLVFLITHDQSKSWPITHAISWVYAKDETTIRFAIEADSLLVKTLADHPVFTLIFFADQSTYSLTCTDVAAWETTARLPLKVALYEGQIKEVRDILFYGAAVSDRPRVYKTYDEAAAMQLDQQIQDILKG | soluble
24 | GMDKLTHYRHTIQEIIKKYYDLSNSQPATATETKISDDLPDTVGDRLIIDEQRDQYLWLCCGWDGKKRVQHIILYLQIQNGKIWIEEDSTNLAIVDEMLVAGIPQTDIILGFHHPSKRGLTEFAIA | soluble
25 | GMDTRKLLLTAQEISRMKGEHKVHFLNPGAVRVNKSLGDAVGLRHMGIHLIQIEPGKESTEYHLHHYEEEAVYVLSGKGTLTMENDQYPIAPGDFVGFPCHAAAHSISNDGTETLVCLVIGQRLDQDVVDYPNQHKRLYRNNGEWNLVDMADIRVLREPTQK | soluble
26 | GMEAHMKSHNLLEAVRFDDQRFVMELVHESENFKIVSFTFKAGQELPVHSHNIEGELNIVVLEGEGEFVGDGDAVIPAPRGAVLVAPISTPHGVRAVTDMKVLVTIAPPI | soluble
27 | GMEVIESKWYKKDGASSASIDDVEKLLNTTLPKQYKSFLLWSNGGEGKLGDNYIYIWAIEDVIAYNHDYGIQKYLQKEYWAFGMDGDIGYILHLSDNSIYRVDLGDLDITSIKYIAPSFDDFLGKAIYLNFNKLQNVANNNLTT | soluble
28 | GMGKEIEIERKTLVSKETFKRLISQLHIGEGDFKLQRNHYFETDDFQLKKQSSALRIREKEAIFTFTLKQPHPAGLLETNQTLSKQEAKLALESAHFPSGEVMDALRDLSIPISQLKHIGTLSTSRAEISYEQGILCLDHSSYLGIEDYEIEFEGTSEEHATVTFQEILKTFSISQVPTENKIQRFFSKKEKN | soluble
29 | GMKEIRIILMGTGNVGLNVLRIIDASNRRRSAFSIKVVGVSDSRSYASGRNLDISSIISNKEKTGRISDRAFSGPEDLMGEAADLLVDCTPASRDGVREYSLYRMAFESGMNVVTANKSGLANKWHDIMDSANQNSKYIRYEATVAGGVPLFSVLDYSILPSKVKRFRGIVSSTINYVIRNMANGRSLRDVVDDAIKKGIAESNPQDDLNGLDAARKSVILVNHIFGTEYTLNDVEYSGVDERSYNANDRLVTEVYVDDRRPVAVSRIISLNKDDFLMSIGMDGLGYQIETDSNGTVNVSDIYDGPYETAGAVVNDILLLSKVQK | soluble
